# Target: ELIC-α1GABAAR chimera (Erwinia chrysanthemi | human) (UniProt P0C7B7)
# Assay: crystal structure
substance,measurement,value
ELIC-α1GABAAR chimera (from UniProt P0C7B7 1-199) (receptor),stoichiometry N,5

# From article PMC6162318
